Experimental findings from the supplement of paper PMC10065799, “High-throughput profiling of sequence recognition by tyrosine kinases and SH2 domains using bacterial peptide display” (eLife, 2023) are described below.

Data set [1] has as its target Hck (UniProt P08631). The data set is described as follows: phosphorylation enrichment, bacterial display (enrichment ratio); higher = better substrate or ligand; peptides without Tyr show the background.
The target in data set [2] is Jak2 (UniProt O60674). The data set is described as above.
Chain of Jak2 (O60674 whole entry, looked up): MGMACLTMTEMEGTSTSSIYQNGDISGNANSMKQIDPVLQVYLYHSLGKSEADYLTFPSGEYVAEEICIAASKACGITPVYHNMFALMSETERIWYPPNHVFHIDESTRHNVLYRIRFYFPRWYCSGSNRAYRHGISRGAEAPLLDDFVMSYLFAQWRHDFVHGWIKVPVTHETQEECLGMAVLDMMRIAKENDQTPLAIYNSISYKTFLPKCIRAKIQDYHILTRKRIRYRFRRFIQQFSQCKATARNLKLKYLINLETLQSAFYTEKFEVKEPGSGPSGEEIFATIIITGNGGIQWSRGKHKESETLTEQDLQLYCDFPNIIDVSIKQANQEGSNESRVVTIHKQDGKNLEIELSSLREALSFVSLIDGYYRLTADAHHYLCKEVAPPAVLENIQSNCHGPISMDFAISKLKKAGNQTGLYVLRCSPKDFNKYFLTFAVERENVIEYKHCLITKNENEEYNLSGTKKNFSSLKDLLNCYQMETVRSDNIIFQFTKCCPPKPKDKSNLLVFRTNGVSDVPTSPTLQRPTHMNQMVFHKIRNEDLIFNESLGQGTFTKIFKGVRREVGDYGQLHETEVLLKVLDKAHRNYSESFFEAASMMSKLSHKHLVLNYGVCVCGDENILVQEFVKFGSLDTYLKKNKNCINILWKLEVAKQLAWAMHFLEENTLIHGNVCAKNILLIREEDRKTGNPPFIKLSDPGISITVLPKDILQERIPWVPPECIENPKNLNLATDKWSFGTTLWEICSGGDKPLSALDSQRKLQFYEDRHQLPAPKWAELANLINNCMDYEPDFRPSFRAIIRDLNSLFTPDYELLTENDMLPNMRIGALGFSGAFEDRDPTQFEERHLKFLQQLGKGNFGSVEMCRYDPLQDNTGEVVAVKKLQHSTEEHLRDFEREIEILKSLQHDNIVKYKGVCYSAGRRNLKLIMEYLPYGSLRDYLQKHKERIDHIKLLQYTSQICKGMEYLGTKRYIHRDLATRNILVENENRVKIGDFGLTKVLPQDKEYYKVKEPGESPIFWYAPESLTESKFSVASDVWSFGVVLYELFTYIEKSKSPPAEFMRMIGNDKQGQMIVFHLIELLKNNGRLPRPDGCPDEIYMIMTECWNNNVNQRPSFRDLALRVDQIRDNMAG
Data set [3] concerns the target Fyn (UniProt P06241). The description is as above.
For data set [4], the target named is Fes (UniProt P07332). The data set is described as above.
Chain of Fes (P07332 whole entry, looked up): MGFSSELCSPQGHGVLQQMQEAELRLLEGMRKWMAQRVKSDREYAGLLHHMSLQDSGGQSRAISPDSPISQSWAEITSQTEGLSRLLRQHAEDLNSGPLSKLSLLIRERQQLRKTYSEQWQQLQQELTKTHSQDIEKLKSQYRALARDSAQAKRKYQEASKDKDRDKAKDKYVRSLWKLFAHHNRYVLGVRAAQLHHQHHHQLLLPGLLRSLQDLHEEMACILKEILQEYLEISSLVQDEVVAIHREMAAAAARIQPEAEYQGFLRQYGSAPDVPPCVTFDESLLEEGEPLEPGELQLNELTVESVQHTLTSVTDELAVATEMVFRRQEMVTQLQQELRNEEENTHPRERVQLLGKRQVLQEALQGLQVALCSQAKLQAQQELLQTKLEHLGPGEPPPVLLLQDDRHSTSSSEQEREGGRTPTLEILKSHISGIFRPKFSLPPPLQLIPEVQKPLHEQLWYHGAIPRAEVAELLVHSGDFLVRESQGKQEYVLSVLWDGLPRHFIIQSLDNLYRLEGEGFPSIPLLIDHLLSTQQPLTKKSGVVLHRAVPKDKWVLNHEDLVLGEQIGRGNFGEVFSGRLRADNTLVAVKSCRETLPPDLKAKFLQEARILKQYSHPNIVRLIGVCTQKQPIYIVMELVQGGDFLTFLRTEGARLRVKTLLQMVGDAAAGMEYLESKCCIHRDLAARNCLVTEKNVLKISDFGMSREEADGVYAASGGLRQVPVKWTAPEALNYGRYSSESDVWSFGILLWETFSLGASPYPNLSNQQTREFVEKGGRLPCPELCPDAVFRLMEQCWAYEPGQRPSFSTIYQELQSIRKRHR
The test system of data set [5] is Fer (mouse). The data set is described as above.
Data set [6] has as its system c-Src. Described as above.
Data set [7] deals with EPHB2 (UniProt P29323). The data set is described as above.
The target of data set [8] is MERTK (UniProt Q12866). Described as above.
The subject of data set [9] is c-Abl (mouse). The description is as above.
The target of data set [10] is EPHB1 (UniProt P54762). The data set is described as above.
Chain of EPHB1 (P54762 whole entry, looked up): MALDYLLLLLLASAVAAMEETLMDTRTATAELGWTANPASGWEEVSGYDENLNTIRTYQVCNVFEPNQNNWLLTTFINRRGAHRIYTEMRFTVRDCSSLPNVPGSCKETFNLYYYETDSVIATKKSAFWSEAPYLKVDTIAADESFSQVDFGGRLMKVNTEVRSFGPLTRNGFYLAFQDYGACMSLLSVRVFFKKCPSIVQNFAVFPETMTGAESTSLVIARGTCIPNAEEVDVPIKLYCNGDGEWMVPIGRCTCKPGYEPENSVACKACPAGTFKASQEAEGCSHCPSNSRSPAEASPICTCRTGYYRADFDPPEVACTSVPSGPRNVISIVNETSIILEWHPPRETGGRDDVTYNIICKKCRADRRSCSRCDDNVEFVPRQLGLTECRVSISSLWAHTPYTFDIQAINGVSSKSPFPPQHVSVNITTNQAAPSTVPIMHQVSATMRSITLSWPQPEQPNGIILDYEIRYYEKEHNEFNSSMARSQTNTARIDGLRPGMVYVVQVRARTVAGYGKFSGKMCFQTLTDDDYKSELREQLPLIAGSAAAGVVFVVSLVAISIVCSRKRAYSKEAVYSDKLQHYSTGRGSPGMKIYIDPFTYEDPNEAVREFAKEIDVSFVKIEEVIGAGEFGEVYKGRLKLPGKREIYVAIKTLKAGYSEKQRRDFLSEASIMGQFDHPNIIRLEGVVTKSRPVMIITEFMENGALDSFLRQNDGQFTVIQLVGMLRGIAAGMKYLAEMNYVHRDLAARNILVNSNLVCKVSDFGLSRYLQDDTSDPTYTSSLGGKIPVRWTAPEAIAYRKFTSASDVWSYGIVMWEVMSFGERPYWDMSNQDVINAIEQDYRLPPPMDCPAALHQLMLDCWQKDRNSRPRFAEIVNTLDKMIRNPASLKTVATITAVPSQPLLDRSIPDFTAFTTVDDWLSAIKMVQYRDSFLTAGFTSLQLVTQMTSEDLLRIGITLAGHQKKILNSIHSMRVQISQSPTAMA
In data set [11] the target is FGFR1 (UniProt P11362). Described as above.
The target of data set [12] is FGFR3 (UniProt P22607). The description is as above.
Chain of FGFR3 (P22607 whole entry, looked up): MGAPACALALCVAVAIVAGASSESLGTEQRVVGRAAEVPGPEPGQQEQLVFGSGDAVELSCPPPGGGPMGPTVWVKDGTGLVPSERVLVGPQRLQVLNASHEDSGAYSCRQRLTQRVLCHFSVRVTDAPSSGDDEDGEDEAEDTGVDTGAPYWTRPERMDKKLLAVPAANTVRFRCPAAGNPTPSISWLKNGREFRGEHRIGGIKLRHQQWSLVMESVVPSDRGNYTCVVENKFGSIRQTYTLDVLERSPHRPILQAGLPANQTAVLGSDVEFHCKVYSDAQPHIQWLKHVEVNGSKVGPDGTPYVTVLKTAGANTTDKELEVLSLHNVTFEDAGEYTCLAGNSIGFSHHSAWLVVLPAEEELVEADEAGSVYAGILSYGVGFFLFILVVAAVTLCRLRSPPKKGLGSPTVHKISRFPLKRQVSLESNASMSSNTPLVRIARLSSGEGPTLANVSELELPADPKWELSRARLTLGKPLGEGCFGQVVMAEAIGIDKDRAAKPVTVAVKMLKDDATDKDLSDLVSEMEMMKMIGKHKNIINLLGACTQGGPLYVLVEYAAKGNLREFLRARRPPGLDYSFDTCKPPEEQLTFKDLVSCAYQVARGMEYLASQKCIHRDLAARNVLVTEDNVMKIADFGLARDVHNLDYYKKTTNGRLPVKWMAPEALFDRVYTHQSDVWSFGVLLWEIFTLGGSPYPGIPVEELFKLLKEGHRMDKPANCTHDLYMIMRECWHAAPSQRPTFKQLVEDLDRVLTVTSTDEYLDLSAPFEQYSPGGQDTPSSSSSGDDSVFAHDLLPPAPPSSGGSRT
In data set [13] the test system is AncSZ. Described as above.
Data set [14] has as its target Grb2 SH2 (UniProt P62993). The data set is described as follows: SH2 binding enrichment of the phosphorylated peptide, bacterial display (enrichment ratio); higher = better substrate or ligand; peptides without Tyr show the background.
Data set [15] concerns the target c-Src SH2. The description is as above.
Data set [16] deals with SHP2-C SH2. The description is as above.
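Throughout, for SH2 binding enrichment of the phosphorylated peptide, bacterial display: peptide library displayed on the E. coli surface as eCPX fusions, selected cells deep-sequenced, score is each peptide's frequency after selection divided by its frequency in the input.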
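Throughout, for phosphorylation enrichment, bacterial display: 11-residue human phosphosite peptides and single-mutation variants displayed on the E. coli surface, counted by deep sequencing, each peptide's frequency after selection divided by its frequency in the unselected input library; frequency after pTyr selection over input frequency; kinase dosed for 20-30% of maximal phosphorylation in three min.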

Chain of Hck (P08631 whole entry, looked up): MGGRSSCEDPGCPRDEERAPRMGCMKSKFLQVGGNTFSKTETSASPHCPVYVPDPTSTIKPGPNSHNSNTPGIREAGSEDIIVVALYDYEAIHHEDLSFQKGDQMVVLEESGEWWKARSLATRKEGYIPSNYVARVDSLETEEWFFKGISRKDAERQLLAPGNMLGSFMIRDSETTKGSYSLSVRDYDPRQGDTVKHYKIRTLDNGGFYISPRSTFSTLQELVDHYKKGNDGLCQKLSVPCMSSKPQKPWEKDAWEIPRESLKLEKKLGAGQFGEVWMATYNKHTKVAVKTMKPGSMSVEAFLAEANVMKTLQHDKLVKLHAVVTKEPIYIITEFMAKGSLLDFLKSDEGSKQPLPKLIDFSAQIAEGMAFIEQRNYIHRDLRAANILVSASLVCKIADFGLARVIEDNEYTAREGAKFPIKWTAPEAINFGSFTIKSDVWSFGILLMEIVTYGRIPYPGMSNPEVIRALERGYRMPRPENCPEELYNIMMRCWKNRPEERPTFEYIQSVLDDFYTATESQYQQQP
Chain of Grb2 SH2 (P62993 whole entry, looked up): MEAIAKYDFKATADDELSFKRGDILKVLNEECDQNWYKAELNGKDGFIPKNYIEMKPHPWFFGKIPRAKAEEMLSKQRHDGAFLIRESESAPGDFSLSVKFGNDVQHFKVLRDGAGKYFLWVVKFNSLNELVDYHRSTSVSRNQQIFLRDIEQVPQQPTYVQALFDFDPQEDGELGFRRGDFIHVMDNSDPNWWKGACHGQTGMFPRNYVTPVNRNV
Chain of Fyn (P06241 whole entry, looked up): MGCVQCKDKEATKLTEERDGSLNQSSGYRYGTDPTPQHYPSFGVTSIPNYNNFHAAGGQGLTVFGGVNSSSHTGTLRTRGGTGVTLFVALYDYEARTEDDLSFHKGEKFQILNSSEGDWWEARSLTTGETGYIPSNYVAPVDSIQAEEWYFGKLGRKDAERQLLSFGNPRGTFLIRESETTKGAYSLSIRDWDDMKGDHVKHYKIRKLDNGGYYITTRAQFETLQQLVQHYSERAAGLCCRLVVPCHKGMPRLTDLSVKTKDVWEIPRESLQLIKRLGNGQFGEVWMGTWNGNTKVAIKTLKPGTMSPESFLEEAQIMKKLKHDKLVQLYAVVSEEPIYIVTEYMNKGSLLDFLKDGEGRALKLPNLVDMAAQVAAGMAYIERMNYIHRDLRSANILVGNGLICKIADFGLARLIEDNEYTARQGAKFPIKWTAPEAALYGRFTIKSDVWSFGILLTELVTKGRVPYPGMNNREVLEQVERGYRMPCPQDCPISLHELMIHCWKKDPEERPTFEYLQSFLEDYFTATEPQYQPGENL

Consider FSQNICIQNRN [PKP2_Y631_Y631C_YF], for which the phosphorylation enrichment came to 0.392 in data set [1]; 0.841 in data set [2]; 0.384 in data set [3]; 0.903 in data set [4]; 0.535 in data set [5]; 0.44 in data set [6]. Further, the phosphorylation enrichment in data set [7] is 0.524; in data set [8], 0.388; in data set [9], 0.719; in data set [10] it was 0.608; in [11], 0.395; in data set [12], 0.584. The phosphorylation enrichment in data set [13] turned out to be 0.766. For the same sequence, the SH2 binding enrichment amounted to 0.733 in [14], 0.665 in [15] and 0.627 in data set [16].

As for FSQQTYFPVSN [ABCD1_Y180_R182P_YF], the phosphorylation enrichment worked out at 2.5 in [1]; 5.51 in [2]; 0.889 in data set [3]; 1.01 in data set [4]; 0.494 in data set [5]; 1.95 in data set [6]. For the same sequence, the phosphorylation enrichment came to 0.908 in data set [7]; 3.42 in [8]; 0.723 in [9]; 0.946 in [10]; 4.99 in data set [11]; 3.8 in data set [12]. Further, in data set [13], the phosphorylation enrichment was 1.1. In addition, the SH2 binding enrichment in [14] was 0.647; in data set [15], 0.599; in data set [16], 0.811.

In the case of FTGSTYRVGDT [FN1_Y106_N104S_YF], the phosphorylation enrichment in data set [1] turned out to be 0.404; in data set [2], 0.783; in data set [3] it was 0.37; in [4] it was 0.703; in data set [5], 0.492; in data set [6], 0.484. The phosphorylation enrichment in data set [7] is 0.384; in data set [8], 0.551; in data set [9], 0.448; in [10], 0.41; in data set [11] it was 0.425; in [12], 0.431. Also, the phosphorylation enrichment in data set [13] was 0.631. In addition, the SH2 binding enrichment in data set [14] came out at 0.731; in data set [15], 0.443; in data set [16] it was 0.482.

With FVIISYVLIIR [OR1D2_Y218], the phosphorylation enrichment in data set [1] amounted to 0.508; in data set [2] it was 0.503; in data set [3], 0.517; in [4], 0.733; in [5] it was 0.566; in data set [6] it was 0.517. In addition, the phosphorylation enrichment was 0.325 in data set [7]; 0.527 in data set [8]; 0.457 in data set [9]; 0.561 in data set [10]; 0.672 in data set [11]; 0.727 in data set [12]. The phosphorylation enrichment in [13] was found to be 0.994. In addition, the SH2 binding enrichment came to 4.69 in data set [14], 1.89 in data set [15] and 4.04 in data set [16].

Consider FVSIVYSDSGE [TSC2_Y1650_N1651S], for which the phosphorylation enrichment came out at 0.532 in data set [1]; 0.952 in [2]; 0.506 in data set [3]; 1.16 in data set [4]; 0.403 in data set [5]; 0.591 in data set [6]. Besides, the phosphorylation enrichment in [7] came to 0.582; in [8], 0.37; in data set [9] it was 0.529; in data set [10] it was 0.439; in data set [11], 0.444; in data set [12], 0.717. The phosphorylation enrichment in [13] came to 0.766. Also, the SH2 binding enrichment stood at 0.928 in data set [14], 0.83 in [15] and 0.967 in data set [16].

Turning to FYRKVYHLASV [RBL1_Y796], the phosphorylation enrichment in data set [1] amounted to 0.422; in [2], 0.667; in data set [3], 0.444; in [4], 0.745; in data set [5], 0.779; in data set [6], 0.296. For the same sequence, the phosphorylation enrichment in [7] came out at 0.566; in data set [8], 0.39; in data set [9], 0.416; in [10], 0.447; in data set [11] it was 0.555; in [12], 0.673. Moreover, in data set [13], the phosphorylation enrichment was determined as 0.853. The SH2 binding enrichment in data set [14] is 1.15; in data set [15], 0.715; in data set [16] it was 1.31.

GAPATYKGDAR [CACNA1A_Y1013_E1014K]: the phosphorylation enrichment in data set [1] is 0.384; in data set [2], 0.489; in data set [3], 0.366; in [4], 0.52; in [5], 0.319; in [6] it was 0.401. Moreover, the phosphorylation enrichment came to 0.422 in [7]; 0.384 in data set [8]; 0.568 in data set [9]; 0.332 in data set [10]; 0.419 in data set [11]; 0.452 in [12]. In addition, the phosphorylation enrichment in data set [13] was determined as 0.432. The SH2 binding enrichment is 1.09 in data set [14], 0.483 in [15] and 1.17 in data set [16].

Take GCKNRYDKDKP [THAP1_Y14]: the phosphorylation enrichment was determined as 0.596 in data set [1]; 0.691 in [2]; 0.535 in data set [3]; 0.928 in [4]; 0.745 in [5]; 0.591 in data set [6]. Moreover, the phosphorylation enrichment in [7] amounted to 0.474; in data set [8], 0.482; in data set [9], 0.752; in data set [10], 0.506; in data set [11], 0.557; in [12], 0.804. In addition, the phosphorylation enrichment in data set [13] turned out to be 0.655. For the same sequence, the SH2 binding enrichment in data set [14] stood at 1.36; in data set [15], 0.949; in [16] it was 0.768.
